Measurements as given in publication PMC11772548, “A Complex Interplay Between Melatonin and RORβ: RORβ is Unlikely a Putative Receptor for Melatonin as Revealed by Biophysical Assays” (Molecular Neurobiology, 2024).

Biological target: ligand-binding domain (LBD) of human RORβ (human, UniProt Q92753-2 250-450, Paper numbering follows the 459-aa isoform (RORβ1; Thr210, Cys262, LBD ending at the AF-2 end, 450), so +11 gives the 470-aa entry: printed 250-450 = 261-461. The paper's modelled LBD is 210-450 (= 22)
Assay: ITC; 2 mM SRC-1 peptide titrated into 50-100 µM LBD of RORβ; 20 mM Tris-HCl pH 8.6, 2 mM CHAPS, 100 mM NaCl, 5 mM DTT; Malvern MicroCal PEAQ-ITC
Conditions: both partners purified

Sequence of ligand-binding domain (LBD) of human RORβ (Q92753 250-450): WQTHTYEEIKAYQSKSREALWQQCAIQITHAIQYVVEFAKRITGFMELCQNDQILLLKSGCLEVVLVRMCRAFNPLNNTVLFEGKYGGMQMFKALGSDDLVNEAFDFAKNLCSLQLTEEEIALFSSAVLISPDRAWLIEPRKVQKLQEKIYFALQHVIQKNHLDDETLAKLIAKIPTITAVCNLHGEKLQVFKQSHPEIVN

Kd: 19.8 µM
dH: -1.1 kcal/mol
B1: SRC-1 co-activator peptide (peptide)
peptide: RHKILHRLLQEGSPS
notes: also called SRC-1 peptide; source: synthetic peptide (GenScript)
